Assay results from IntAct's records for PubMed 18786395.

B1: FH1/FH2 domain-containing protein 1 (Homo sapiens), Q9Y613 (parent)
chain: MAGGEDRGDGEPVSVVTVRVQYLEDTDPFACANFPEPRRAPTCSLDGALPLGAQIPAVHRLLGAPLKLEDCALQVSPSGYYLDTELSLEEQREMLEGFYEEISKGRKPTLILRTQLSVRVNAILEKLYSSSGPELRRSLFSLKQIFQEDKDLVPEFVHSEGLSCLIRVGAAADHNYQSYILRALGQLMLFVDGMLGVVAHSDTIQWLYTLCASLSRLVVKTALKLLLVFVEYSENNAPLFIRAVNSVASTTGAPPWANLVSILEEKNGADPELLVYTVTLINKTLAALPDQDSFYDVTDALEQQGMEALVQRHLGTAGTDVDLRTQLVLYENALKLEDGDIEEAPGAGGRRERRKPSSEEGKRSRRSLEGGGCPARAPEPGPTGPASPVGPTSSTGPALLTGPASSPVGPPSGLQASVNLFPTISVAPSADTSSERSIYKARFLENVAAAETEKQVALAQGRAETLAGAMPNEAGGHPDARQLWDSPETAPAARTPQSPAPCVLLRAQRSLAPEPKEPLIPASPKAEPIWELPTRAPRLSIGDLDFSDLGEDEDQDMLNVESVEAGKDIPAPSPPLPLLSGVPPPPPLPPPPPIKGPFPPPPPLPLAAPLPHSVPDSSALPTKRKTVKLFWRELKLAGGHGVSASRFGPCATLWASLDPVSVDTARLEHLFESRAKEVLPSKKAGEGRRTMTTVLDPKRSNAINIGLTTLPPVHVIKAALLNFDEFAVSKDGIEKLLTMMPTEEERQKIEEAQLANPDIPLGPAENFLMTLASIGGLAARLQLWAFKLDYDSMEREIAEPLFDLKVGMEQLVQNATFRCILATLLAVGNFLNGSQSSGFELSYLEKVSEVKDTVRRQSLLHHLCSLVLQTRPESSDLYSEIPALTRCAKVDFEQLTENLGQLERRSRAAEESLRSLAKHELAPALRARLTHFLDQCARRVAMLRIVHRRVCNRFHAFLLYLGYTPQAAREVRIMQFCHTLREFALEYRTCRERVLQQQQKQATYRERNKTRGRMITETEKFSGVAGEAPSNPSVPVAVSSGPGRGDADSHASMKSLLTSRPEDTTHNRRSRGMVQSSSPIMPTVGPSTASPEEPPGSSLPSDTSDEIMDLLVQSVTKSSPRALAARERKRSRGNRKSLRRTLKSGLGDDLVQALGLSKGPGLEV

Variants of: B1
Settings: with rash_human HRAS

| effect of a mutation on the interaction | Variant |
| --- | --- |
| increasing interaction | P41K |
